One may read the Km as the substrate concentration at which the rate is half of its maximum. By Vmax is commonly meant the top rate of the reaction or transport when substrate is in excess. Usually kcat stands for the maximal rate divided by the concentration of active sites. A word on the kcat/Km: it is the second-order rate constant that governs catalysis at low substrate concentration.

Holding throughout (assay): purified protein
Substrate in series [1]: CC(C)O
The settings on record: apparent, 0.4 mM NAD+, standard assay 50 mM CAPSO pH 10.0, 50 °C.

Substrate in series [2]: CC(C)(C)OC(=O)N1CCCC(=O)C1
The class given is biochemical, Rhodococcus erythropolis. The note with it: apparent, 0.4 mM NADH, standard assay 50 mM PIPES pH 6.0, 60 °C.

Substrate in series [3]: CC(C)=O
Format: biochemical, Rhodococcus erythropolis. The settings on record: apparent, 0.4 mM NADH, standard assay 50 mM PIPES pH 6.0, 60 °C.

Substrate in series [4]: CCCCCCC(C)=O
Format: biochemical, Rhodococcus erythropolis. The settings on record: apparent, 0.4 mM NADH, standard assay 50 mM PIPES pH 6.0, 60 °C.

Substrate in series [5]: CCCCCCC(C)O
The class given is biochemical, Rhodococcus erythropolis. The settings on record: apparent, 0.4 mM NAD+, standard assay 50 mM CAPSO pH 10.0, 50 °C.

B1: ReCR (Rhodococcus erythropolis; G336R/K233S/K67R/N94S/Q110S) (protein)
chain: MKAIQYTRIGAEPELTEIPKPEPGPGEVLLEVTAAGVCHSDDFIMSLPEEQYTYGLPLTLGHEGAGRVAAVGEGVEGLDIGTNVVVYGPWGCGSCWHCSQGLENYCSRASELGINPPGLGAPGALAEFMIVDSPRHLVPIGDLDPVKTVPLTDAGLTPYHAIKRSLPKLRGGSYAVVIGTGGLGHVAIQLLRHLSAATVIALDVSADKLELATKVGAHEVVLSDKDAAENVRSITGSQGAALVLDFVGYQPTIDTAMAVAGVGSDVTIVGIGDGQAHAKVGFFQSPYEASVTVPYWGARNELIELIDLAHAGIFDIAVETFSLDNGAEAYRRLAARTLSGRAVVVPGL
On to B1, for which the Michaelis-Menten constant (Km) amounted to 1460 ± 60 µM in the series “purified protein [1]”; 1740 ± 80 µM in “purified protein [2]”; 46060 ± 2620 µM in “purified protein [3]”; 3290 ± 50 µM in the series “purified protein [4]”; 4940 ± 450 µM in the series “purified protein [5]”. Also, the Vmax came out at 23.5 µmol/min/mg in “purified protein [1]”; 104 µmol/min/mg in “purified protein [2]”; 66.3 µmol/min/mg in “purified protein [3]”; 236 µmol/min/mg in “purified protein [4]”; 107 µmol/min/mg in the series “purified protein [5]”. Moreover, the kcat came to 14.2 s⁻¹ in “purified protein [1]”; 62.6 ± 1.49 s⁻¹ in the series “purified protein [2]”; 40.1 ± 1.98 s⁻¹ in “purified protein [3]”; 142 ± 3.11 s⁻¹ in the series “purified protein [4]”; 64.4 ± 1.66 s⁻¹ in “purified protein [5]”. The kcat/Km in “purified protein [1]” amounted to 9740 M⁻¹ s⁻¹; in “purified protein [2]”, 36000 ± 860 M⁻¹ s⁻¹; in the series “purified protein [3]” it was 870 ± 40 M⁻¹ s⁻¹; in the series “purified protein [4]” it was 43300 ± 950 M⁻¹ s⁻¹; in the series “purified protein [5]”, 13000 ± 340 M⁻¹ s⁻¹.

B2: ReCR (Rhodococcus erythropolis; G336R/K233S/K67R/N94S/Q110S/Y54F) (protein)
chain: MKAIQYTRIGAEPELTEIPKPEPGPGEVLLEVTAAGVCHSDDFIMSLPEEQYTFGLPLTLGHEGAGRVAAVGEGVEGLDIGTNVVVYGPWGCGSCWHCSQGLENYCSRASELGINPPGLGAPGALAEFMIVDSPRHLVPIGDLDPVKTVPLTDAGLTPYHAIKRSLPKLRGGSYAVVIGTGGLGHVAIQLLRHLSAATVIALDVSADKLELATKVGAHEVVLSDKDAAENVRSITGSQGAALVLDFVGYQPTIDTAMAVAGVGSDVTIVGIGDGQAHAKVGFFQSPYEASVTVPYWGARNELIELIDLAHAGIFDIAVETFSLDNGAEAYRRLAARTLSGRAVVVPGL
Regarding B2, the Michaelis-Menten constant (Km) in “purified protein [1]” came out at 1030 ± 50 µM; in the series “purified protein [2]”, 1730 ± 50 µM; in the series “purified protein [3]”, 37320 ± 560 µM; in “purified protein [4]” it was 3110 ± 120 µM; in the series “purified protein [5]”, 1370 ± 80 µM. Moreover, the maximum rate (Vmax) came to 35.3 µmol/min/mg in “purified protein [1]”; 141 µmol/min/mg in “purified protein [2]”; 90.5 µmol/min/mg in “purified protein [3]”; 274 µmol/min/mg in “purified protein [4]”; 128 µmol/min/mg in the series “purified protein [5]”. Further, the catalytic constant (kcat) in the series “purified protein [1]” amounted to 21.3 s⁻¹; in “purified protein [2]” it was 85.1 ± 3.94 s⁻¹; in the series “purified protein [3]”, 54.7 ± 1.02 s⁻¹; in “purified protein [4]” it was 165 ± 4.58 s⁻¹; in “purified protein [5]”, 77.5 ± 1.88 s⁻¹. Also, the kcat/Km came to 20700 M⁻¹ s⁻¹ in “purified protein [1]”; 49200 ± 2280 M⁻¹ s⁻¹ in “purified protein [2]”; 1470 ± 30 M⁻¹ s⁻¹ in the series “purified protein [3]”; 53200 ± 1470 M⁻¹ s⁻¹ in the series “purified protein [4]”; 56600 ± 1370 M⁻¹ s⁻¹ in the series “purified protein [5]”.
